The values that follow are results of earlier work, collected in article PMC3184957, “Improving a Natural CaMKII Inhibitor by Random and Rational Design” (PLoS ONE, 2011).

By IC50 is commonly meant the midpoint of a concentration-inhibition curve.

This series has as its target T1, CaMKIIα (Rattus norvegicus, UniProt P11275).
T1 construct: made in house; host or cells: baculovirus/Sf9 (CaMKII); bacteria (CaM)
The settings on record: background statement of the abstract, no reference given; read-out: IC50 of CaMKII inhibition by CaM-KIIN. On the procedure: Background CaM-KIIN has evolved to inhibit stimulated and autonomous activity of the Ca^2+/calmodulin (CaM)-dependent protein kinase II (CaMKII) efficiently, selectively, and potently (IC50 ∼100 nM). The CN class of peptides, derived from the inhibitory region of CaM-KIIN, provides powerful new tools to study CaMKII functions. The goal of this study was to identify the residues required for CaMKII inhibition, and to assess if artificial mutations could further improve the potency achieved during evolution. Methodology/Principal Findings First, the minimal region with full inhibitory potency wa ...

B1: CaM-KIIN: natural CaMKII inhibitor protein expressed in brain (protein, UniProt Q7Z7J9 1-78, looked up)
Calcium/calmodulin-dependent …: MSEVLPYGDEKLSPYGDGGDVGQIFSCRLQDTNNFFGAGQNKRPPKLGQIGRSKRVVIEDDRIDDVLKNMTDKAPPGV
As to B1, the IC50 is around 100 nM.
